Paper PMC2119167 (The Journal of Experimental Medicine, 1992)

Target: the molecule itself
Experiment: SEC

B1: platelet membrane GMP-140 (P-selectin) (natural protein)
chain: WTYHYSTKAYSWNISRKYCQNRYTDLVAIQNKNEIDYLNKVLPYYSSYYWIGIRKNNKTWTWVGTKKALTNEAENWADNEPNNKRNNEDCVEIYIKSPSAPGKWNDEHCLKKKHALCYTASCQDMSCSKQGECLETIGNYTCSCYPGFYGPECEYVRECGELELPQHVLMNCSHPLGNFSFNSQCSFHCTDGYQVNGPSKLECLASGIWTNKPPQCLAAQCPPLKIPERGNMTCLHSAKAFQHQSSCSFSCEEGFALVGPEVVQCTASGVWTAPAPVCKAVQCQHLEAPSEGTMDCVHPLTAFAYGSSCKFECQPGYRVRGLDMLRCIDSGHWSAPLPTCEAISCEPLESPVHGSMDCSPSLRAFQYDTNCSFRCAEGFMLRGADIVRCDNLGQWTAPAPVCQALQCQDLPVPNEARVNCSHPFGAFRYQSVCSFTCNEGLLLVGASVLQCLATGNWNSVPPECQAIPCTPLLSPQNGTMTCVQPLGSSSYKSTCQFICDEGYSLSGPERLDCTRSGRWTDSPPMCEAIKCPELFAPEQGSLDCSDTRGEFNVGSTCHFSCDNGFKLEGPNNVECTTSGRWSATPPTCKGIASLPTPGVQCPALTTPGQGTMYCRHHPGTFGFNTTCYFGCNAGFTLIGDSTLSCRPSGQWTAVTPACRAVKCSELHVNKPIAMNCSNLWGNFSYGSICSFHCLEGQLLNGSAQTACQENGHWSTTVPTCQAGPLTIQEALTYFGGAVASTIGLIMGGTLLALLRKRFRQKDDGKCPLNPHSHLGTYGVFTNAAFDPSP
stoichiometry N: 4
